Measurements reported in patent JP2012034697A.
pKd: −log10 of the molar value.

Molecular target: Aβ(βアミロイドペプチド) (UniProt P05067)
Test: BIAcore

UniProt P05067, sequence (P05067 672-713 limits assumed): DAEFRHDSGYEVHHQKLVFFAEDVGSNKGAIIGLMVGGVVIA

pKd: 9.06
Substance: マウスモノクローナル抗体3D6 (antibody)
